Measurements from paper PMC3212559, “Large-Scale Protein-Protein Interaction Analysis in Arabidopsis Mesophyll Protoplasts by Split Firefly Luciferase Complementation” (PLoS ONE, 2011).

What was measured:
Assay in all cases: split reporter (BiFC, NanoBiT); SFLC in living Arabidopsis mesophyll protoplasts: Aux/IAA-FLucN or MYB30-FLucN co-expressed with ARFCTD-FLucC or Aux/IAA-FLucC for 6 hr; 10 µg of each construct, 2×10^4 cells, 96-well plate, D-luciferin; relative activity standardised against ARF5CTD-FLucC + IAA28-FLucN
Settings in all cases: partners not purified
IAA12-FLucC = biological target: T1, IAA12-FLucC (Arabidopsis, UniProt Q38830 1-239)
T1 construct: Arabidopsis Aux/IAA protein IAA12; also called Aux/IAA-FLucC; source: Arabidopsis mesophyll protoplasts, transfected, in living cells; not shown: FLucC (firefly luciferase aa 394-550)
T1 sequence (looked up): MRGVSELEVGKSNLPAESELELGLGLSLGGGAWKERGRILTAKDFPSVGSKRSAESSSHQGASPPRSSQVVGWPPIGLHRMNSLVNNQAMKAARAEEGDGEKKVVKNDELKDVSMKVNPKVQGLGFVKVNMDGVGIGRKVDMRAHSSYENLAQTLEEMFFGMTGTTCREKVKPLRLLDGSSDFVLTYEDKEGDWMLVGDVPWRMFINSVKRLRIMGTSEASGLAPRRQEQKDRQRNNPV

[1] = biological target: T2, ARF1 C-terminal domain (CTD)-FLucC (Arabidopsis, UniProt Q8L7G0 542-665)
T2 construct: Arabidopsis auxin response factor 1, C-terminal dimerization domain (CTD); In the ARF-ARF tests the same CTD stood both as ARFCTD-FLucC and as ARFCTD-FLucN (FLucN, firefly luciferase aa 1-398, in place of FLucC); one molecule for both; also called ARF1CTD-FLucC; ARFCTD-FLucC; source: Arabidopsis mesophyll protoplasts, transfected, in living cells (SFLC) and in lysate (co-IP); not shown: FLucC …
T2 sequence (looked up): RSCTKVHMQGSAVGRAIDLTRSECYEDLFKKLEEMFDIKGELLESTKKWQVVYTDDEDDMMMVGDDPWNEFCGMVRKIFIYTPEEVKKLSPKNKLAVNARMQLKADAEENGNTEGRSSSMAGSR

[2] = biological target: T3, ARF9 C-terminal domain (CTD)-FLucC (Arabidopsis, UniProt Q9XED8 523-638)
T3 construct: Arabidopsis auxin response factor 9, C-terminal dimerization domain (CTD); In the ARF-ARF tests the same CTD stood both as ARFCTD-FLucC and as ARFCTD-FLucN; one molecule for both; also called ARF9CTD-FLucC; ARFCTD-FLucC; source: Arabidopsis mesophyll protoplasts, transfected, in living cells (SFLC) and in lysate (co-IP); not shown: FLucC (firefly luciferase aa 394-550)
T3 sequence (looked up): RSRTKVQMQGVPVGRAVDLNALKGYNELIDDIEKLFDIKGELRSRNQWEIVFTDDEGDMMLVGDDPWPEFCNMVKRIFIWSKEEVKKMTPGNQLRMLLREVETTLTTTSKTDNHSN

[3] = biological target: T4, ARF18 C-terminal domain (CTD)-FLucC (Arabidopsis, UniProt Q9C5W9 489-602)
T4 construct: Arabidopsis auxin response factor 18, C-terminal dimerization domain (CTD); In the ARF-ARF tests the same CTD stood both as ARFCTD-FLucC and as ARFCTD-FLucN; one molecule for both; also called ARF18CTD-FLucC; ARFCTD-FLucC; source: Arabidopsis mesophyll protoplasts, transfected, in living cells; not shown: FLucC (firefly luciferase aa 394-550)
T4 sequence (looked up): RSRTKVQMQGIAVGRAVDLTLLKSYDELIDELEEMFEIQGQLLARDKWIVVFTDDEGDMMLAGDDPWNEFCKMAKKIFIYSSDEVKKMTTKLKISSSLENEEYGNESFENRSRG

IAA3-FLucC = biological target: T5, IAA3-FLucC (Arabidopsis, UniProt Q38822 1-189)
T5 construct: Arabidopsis Aux/IAA protein IAA3; also called Aux/IAA-FLucC; source: Arabidopsis mesophyll protoplasts, transfected, in living cells; not shown: FLucC (firefly luciferase aa 394-550)
T5 sequence (looked up): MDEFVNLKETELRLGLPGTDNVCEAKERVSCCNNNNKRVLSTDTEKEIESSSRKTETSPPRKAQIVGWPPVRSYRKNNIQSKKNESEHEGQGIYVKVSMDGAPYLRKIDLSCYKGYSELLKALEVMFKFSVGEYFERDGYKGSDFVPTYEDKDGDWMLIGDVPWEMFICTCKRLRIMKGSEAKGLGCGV

Measured: relative luciferase activity (standardised against ARF5CTD-FLucC + IAA28-FLucN)

B1: MYB30-FLucN (natural protein, UniProt Q9SCU7 1-323, looked up)
chain: MVRPPCCDKGGVKKGPWTPEEDIILVTYIQEHGPGNWRAVPTNTGLLRCSKSCRLRWTNYLRPGIKRGNFTEHEEKMIVHLQALLGNRWAAIASYLPQRTDNDIKNYWNTHLKKKLNKVNQDSHQELDRSSLSSSPSSSSANSNSNISRGQWERRLQTDIHLAKKALSEALSPAVAPIITSTVTTTSSSAESRRSTSSASGFLRTQETSTTYASSTENIAKLLKGWVKNSPKTQNSADQIASTEVKEVIKSDDGKECAGAFQSFSEFDHSYQQAGVSPDHETKPDITGCCSNQSQWSLFEKWLFEDSGGQIGDILLDENTNFF
notes: transcription factor MYB30, the unrelated protein used as negative control; source: Arabidopsis mesophyll protoplasts, transfected, in living cells; not shown: FLucN (firefly luciferase aa 1-398)
< 0.1: all assays above
